B1: 1.1.16-1 (antibody, human IgG1, kappa)
heavy: QVQLLQSGAAVTKPGASVRVSCEASGYNIRDYFIHWWRQAPGQGLQWVGWINPKTGQPNNPRQFQGRVSLTRHASWDFDTFSFYMDLKALRSDDTAVYFCARQRSDYWDFDVWGSGTQVTVSSASTKGPSVFPLAPSSKSTSGGTAALGCLVKDYFPEPVTVSWNSGALTSGVHTFPAVLQSSGLYSLSSVVTVPSSSLGTQTYICNVNHKPSNTKVDKKVEPKSCDKTHTCPPCPAPELLAGPDVFLFPPKPKDTLMISRTPEVTCVVVDVSHEDPEVKFNWYVDGVEVHNAKTKPREEQYNSTYRVVSVLTVLHQDWLNGKEYKCKVSNKALPLPEEKTISKAKGQPREPQVYTLPPSREEMTKNQVSLTCLVKGFYPSDIAVEWESNGQPENNYKTTPPVLDSDGSFFLYSKLTVDKSRWQQGNVFSCSVLHEALHSHYTQKSLSLSPGK
light: DIQMTQSPSSLSASVGDTVTITCQANGYLNWYQQRRGKAPKLLIYDGSKLERGVPSRFSGRRWGQEYNLTINNLQPEDIATYFCQVYEFVGPGTRLDLKRTVAAPSVFIFPPSDEQLKSGTASVVCLLNNFYPREAKVQWKVDNALQSGNSQESVTEQDSKDSTYSLSSTLTLSKADYEKHKVYACEVTHQGLSSPVTKSFNRGEC
B2: 1.31.31-1 (antibody, human IgG1, kappa)
heavy: B1 heavy with L5V, A10E, V97T
light: B1 light with N68T, N72S, N73S, G91V, R95N
B3: 1.1.19-1 (antibody, human IgG1, kappa)
heavy: B1 heavy
light: B1 light with G91T
B4: 1.1.25-1 (antibody, human IgG1, kappa)
heavy: B1 heavy
light: B1 light with G91V, R95N, L96V
B5: 1.1.17-1 (antibody, human IgG1, kappa)
heavy: B1 heavy
light: B1 light with V90F
B6: 1.1.26-1 (antibody, human IgG1, kappa)
heavy: B1 heavy
light: B1 light with G91V, L98I
B7: 1.1.29-1 (antibody, human IgG1, kappa)
heavy: B1 heavy
light: B1 light with R95N, L96V, L98I
B8: 1.36.1-1 (antibody, human IgG1, kappa)
heavy: QVQLVQSGAEVKKPGASVRVSCKASGYNIRDYFMHWWRQAPGQGLQWVGWINPKTGQPNNPRQFQGRVTMTRHASWDFDTFSAYMDLSRLRSDDTATYFCARQRTDYWDFDVWGQGTMVTVSSASTKGPSVFPLAPSSKSTSGGTAALGCLVKDYFPEPVTVSWNSGALTSGVHTFPAVLQSSGLYSLSSVVTVPSSSLGTQTYICNVNHKPSNTKVDKKVEPKSCDKTHTCPPCPAPELLAGPDVFLFPPKPKDTLMISRTPEVTCVVVDVSHEDPEVKFNWYVDGVEVHNAKTKPREEQYNSTYRVVSVLTVLHQDWLNGKEYKCKVSNKALPLPEEKTISKAKGQPREPQVYTLPPSREEMTKNQVSLTCLVKGFYPSDIAVEWESNGQPENNYKTTPPVLDSDGSFFLYSKLTVDKSRWQQGNVFSCSVLHEALHSHYTQKSLSLSPGK
light: B1 light with G91V
B9: 1.1.31-1 (antibody, human IgG1, kappa)
heavy: B1 heavy
light: B1 light with N68T, N72S, N73S, G91V, R95N
B10: 1.1.27-1 (antibody, human IgG1, kappa)
heavy: B1 heavy
light: B1 light with G91V, L96V, L98I
B11: 1.1.28-1 (antibody, human IgG1, kappa)
heavy: B1 heavy
light: B1 light with G91V, R95N, L96V, L98I
B12: 1.1.30-1 (antibody, human IgG1, kappa)
heavy: B1 heavy
light: B1 light with G91T, R95N, L96V, L98I
B13: 1.1.23-1 (antibody, human IgG1, kappa)
heavy: B1 heavy
light: B1 light with G91T, R95N
B14: 1.32.1-1 (antibody, human IgG1, kappa)
heavy: B1 heavy with L5V, A10E, S105T
light: B1 light with G91V
B15: 1.13.15-1 (antibody, human IgG1, kappa)
heavy: B1 heavy with I34M, W37V
light: B1 light with V90F, G91V
B16: 1.34.1-1 (antibody, human IgG1, kappa)
heavy: B1 heavy with L5V, A10E, T12K, E23K, S69T, S105T
light: B1 light with G91V
B17: 1.1.21-1 (antibody, human IgG1, kappa)
heavy: B1 heavy
light: B1 light with R95N
B18: 1.35.1-1 (antibody, human IgG1, kappa)
heavy: B8 heavy with A83F
light: B1 light with G91V
B19: 1.1.18-1 (antibody, human IgG1, kappa)
heavy: B1 heavy
light: B1 light with G91S
B20: 1.33.1-1 (antibody, human IgG1, kappa)
heavy: B1 heavy with L5V, A10E, T12K, E23K, S69T, V97T
light: B1 light with G91V
B21: 1.1.24-1 (antibody, human IgG1, kappa)
heavy: B1 heavy
light: B1 light with G91V, L96V
B22: 1.31.1-1 (antibody, human IgG1, kappa)
heavy: B1 heavy with L5V, A10E, V97T
light: B1 light with G91V
B23: 1.1.22-1 (antibody, human IgG1, kappa)
heavy: B1 heavy
light: B1 light with G91S, R95N
B24: 1.1.20-1 (antibody, human IgG1, kappa)
heavy: B1 heavy
light: B1 light with G91V, R95N
B25: 1.12.15-1 (antibody, human IgG1, kappa)
heavy: B1 heavy with W37V
light: B1 light with V90F, G91V
B26: 1.12.17-1 (antibody, human IgG1, kappa, V domains shown)
VH: QVQLLQSGAAVTKPGASVRVSCEASGYNIRDYFIHWVRQAPGQGLQWVGWINPKTGQPNNPRQFQGRVSLTRHASWDFDTFSFYMDLKALRSDDTAVYFCARQRSDYWDFDVWGSGTQVTVSS
VL: DIQMTQSPSSLSASVGDTVTITCQANGYLNWYQQRRGKAPKLLIYDGSKLERGVPSRFSGRRWGQEYNLTINNLQPEDIATYFCQVYEFFGPGTRLDLKR
B27: 1.13.17-1 (antibody, human IgG1, kappa, V domains shown)
VH: B26 VH with I34M
VL: B26 VL
B28: 1.14.17-1 (antibody, human IgG1, kappa, V domains shown)
VH: B26 VH with I34M, F83A
VL: B26 VL

Changes are numbered by the printed parent chain.

For the first assay, the target named is HIV gp120 Bal (HIV). Put plainly: single-point ELISA. Further: test concentration or dose not given here. On the technique in general: ELISA stands for enzyme-linked immunosorbent assay.
Turning to B1, the “ELISA (A450)” value came to 1.06 A450.
Regarding B2, the “ELISA (A450)” value worked out at 0.98 A450.
As for B3, the “ELISA (A450)” value is 1.03 A450.
Regarding B4, the “ELISA (A450)” value is 0.9 A450.
As to B5, the “ELISA (A450)” value amounted to 1.02 A450.
For B6, the “ELISA (A450)” value is 0.96 A450.
Regarding B7, the “ELISA (A450)” value amounted to 0.91 A450.
On to B8, for which the “ELISA (A450)” value worked out at 1.13 A450.
On to B9, for which the “ELISA (A450)” value was determined as 0.87 A450.
In the case of B10, the “ELISA (A450)” value is 0.97 A450.
Consider B11, for which the “ELISA (A450)” value was determined as 0.98 A450.
As to B12, the “ELISA (A450)” value came out at 0.9 A450.
For B13, the “ELISA (A450)” value was determined as 0.9 A450.
As to B14, the “ELISA (A450)” value was 0.93 A450.
For B15, the “ELISA (A450)” value was 0.7 A450.
On to B16, for which the “ELISA (A450)” value was determined as 0.83 A450.
On to B17, for which the “ELISA (A450)” value came out at 0.98 A450.
Regarding B18, the “ELISA (A450)” value was found to be 0.84 A450.
B19: the “ELISA (A450)” value amounted to 0.92 A450.
For B20, the “ELISA (A450)” value turned out to be 0.88 A450.
In the case of B21, the “ELISA (A450)” value was 0.88 A450.
The same measure, in the same setting: with B22 the figure was 0.82 A450; with B23, 0.88 A450.
Turning to B24, the “ELISA (A450)” value amounted to 0.94 A450.
As for B25, the “ELISA (A450)” value is 0.69 A450.
For the molecule B26, the “ELISA (A450)” value stood at 0.9 A450.
With B27, the “ELISA (A450)” value came out at 1.02 A450.
Still for that read-out and setting: with B28 the figure was 0.89 A450.

The next assay has as its target HIV gp120 CAAN (HIV). Put plainly: single-point ELISA. Further: test concentration or dose not given here.
On to B1, for which the “ELISA (A450)” value worked out at 0.99 A450.
Regarding B2, the “ELISA (A450)” value is 1.02 A450.
Regarding B3, the “ELISA (A450)” value amounted to 1.05 A450.
As to B4, the “ELISA (A450)” value came out at 0.92 A450.
As for B5, the “ELISA (A450)” value amounted to 0.9 A450.
In the case of B6, the “ELISA (A450)” value is 1.07 A450.
For B7, the “ELISA (A450)” value was found to be 1.01 A450.
Regarding B8, the “ELISA (A450)” value was 0.75 A450.
As to B9, the “ELISA (A450)” value amounted to 0.96 A450.
Still for that read-out and setting: with B10 the figure was 0.99 A450; with B11, 0.93 A450; with B12, 0.86 A450.
For B13, the “ELISA (A450)” value is 0.95 A450.
Take B14: the “ELISA (A450)” value stood at 0.83 A450.
B15: the “ELISA (A450)” value turned out to be 0.6 A450.
On the same count and under the same terms, with B16 the figure was 0.9 A450; with B17, 0.99 A450; with B18, 0.87 A450.
With B19, the “ELISA (A450)” value is 0.92 A450.
On to B20, for which the “ELISA (A450)” value was 0.98 A450.
For the molecule B21, the “ELISA (A450)” value was determined as 0.98 A450.
As to B22, the “ELISA (A450)” value came out at 0.92 A450.
As for B23, the “ELISA (A450)” value was 1.02 A450.
On to B24, for which the “ELISA (A450)” value was 0.95 A450.
Turning to B25, the “ELISA (A450)” value was 0.63 A450.
As for B26, the “ELISA (A450)” value stood at 0.84 A450.
In the case of B27, the “ELISA (A450)” value came out at 0.78 A450.
Same read-out and setting: with B28 the figure was 0.43 A450.

For the origin of these results see patent US20220089698A1 (published 2022).
